The test system of the series is Escherichia coli TOP10. In words: shrunken log2 fold change of peptide-encoding DNA abundance (4.5 h post-induction vs induction); higher = less antimicrobial activity (less host growth inhibition). Conditions: time post-induction: 4.5 h; library: site-saturation at positions 5, 18, 19, 20.
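Also: peptides expressed intracellularly from a pBAD plasmid library in pooled LB shake-flask culture, induced with 0.3% L-arabinose, DNA abundance read by NGS, three biological replicates, DESeq2 with apeglm shrinkage.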

As to RRIRHRPPRLPRPRPRPQWRPRP, the “shrunken log2 fold change” value came to 0.324.

With RRIRDRPPRLPRPRPRPARKPRP, the “shrunken log2 fold change” value came to 0.574.

In the case of RRIRQRPPRLPRPRPRPYGNPRP, the “shrunken log2 fold change” value was -0.0235.

With RRIRMRPPRLPRPRPRPRVAPRP, the “shrunken log2 fold change” value amounted to 0.699.

RRIRTRPPRLPRPRPRPCALPRP: the “shrunken log2 fold change” value was -0.0236.

Turning to RRIRWRPPRLPRPRPRPCYEPRP, the “shrunken log2 fold change” value is -0.136.

Turning to RRIRLRPPRLPRPRPRPQVMPRP, the “shrunken log2 fold change” value was -0.0202.

Take RRIRKRPPRLPRPRPRPVGQPRP: the “shrunken log2 fold change” value was determined as 0.0743.

Turning to RRIRFRPPRLPRPRPRPYGDPRP, the “shrunken log2 fold change” value is -0.0819.

For the sequence RRIRSRPPRLPRPRPRPGVSPRP, the “shrunken log2 fold change” value is 0.119.

In the case of RRIRRRPPRLPRPRPRPWFWPRP, the “shrunken log2 fold change” value was found to be 1.76.

Regarding RRIRPRPPRLPRPRPRPVEQPRP, the “shrunken log2 fold change” value stood at 0.239.

For RRIRHRPPRLPRPRPRPFYFPRP, the “shrunken log2 fold change” value was -0.355.

Consider RRIRGRPPRLPRPRPRPNQTPRP, for which the “shrunken log2 fold change” value is -0.0961.

For the sequence RRIRQRPPRLPRPRPRPAMIPRP, the “shrunken log2 fold change” value was determined as 0.103.

Take RRIRARPPRLPRPRPRPIKIPRP: the “shrunken log2 fold change” value is -0.095.

Turning to RRIRSRPPRLPRPRPRPPMVPRP, the “shrunken log2 fold change” value is 0.131.

Take RRIRHRPPRLPRPRPRPHSSPRP: the “shrunken log2 fold change” value is -0.0394.

Regarding RRIRQRPPRLPRPRPRPIISPRP, the “shrunken log2 fold change” value was -0.189.

Turning to RRIRNRPPRLPRPRPRPAFDPRP, the “shrunken log2 fold change” value turned out to be 0.235.

Regarding RRIRTRPPRLPRPRPRPIKSPRP, the “shrunken log2 fold change” value was -0.61.

With RRIRQRPPRLPRPRPRPVHVPRP, the “shrunken log2 fold change” value was -0.0167.

In the case of RRIRHRPPRLPRPRPRPAYIPRP, the “shrunken log2 fold change” value is -0.00844.

RRIRTRPPRLPRPRPRPRYEPRP: the “shrunken log2 fold change” value was -0.0806.

In the case of RRIRARPPRLPRPRPRPSDDPRP, the “shrunken log2 fold change” value came to 0.282.

On to RRIRWRPPRLPRPRPRPRVFPRP, for which the “shrunken log2 fold change” value stood at 0.186.

As for RRIRVRPPRLPRPRPRPAKEPRP, the “shrunken log2 fold change” value was 0.226.

As for RRIRERPPRLPRPRPRPYQPPRP, the “shrunken log2 fold change” value amounted to 0.0223.

Consider RRIRTRPPRLPRPRPRPQWEPRP, for which the “shrunken log2 fold change” value was 0.0154.

RRIRWRPPRLPRPRPRPILQPRP: the “shrunken log2 fold change” value worked out at 0.0247.

For the sequence RRIRRRPPRLPRPRPRPKVHPRP, the “shrunken log2 fold change” value was 0.153.

Turning to RRIRPRPPRLPRPRPRPQNRPRP, the “shrunken log2 fold change” value was -0.598.

Take RRIRGRPPRLPRPRPRPVIPPRP: the “shrunken log2 fold change” value stood at 0.000617.

For RRIRLRPPRLPRPRPRPMSNPRP, the “shrunken log2 fold change” value is -0.089.

With RRIRCRPPRLPRPRPRPGHTPRP, the “shrunken log2 fold change” value is -0.128.

RRIRYRPPRLPRPRPRPCGWPRP: the “shrunken log2 fold change” value was -0.00979.

Turning to RRIRPRPPRLPRPRPRPSTDPRP, the “shrunken log2 fold change” value is -0.207.

Regarding RRIRERPPRLPRPRPRPLNTPRP, the “shrunken log2 fold change” value is -1.11.

For RRIRIRPPRLPRPRPRPCHEPRP, the “shrunken log2 fold change” value is -0.0297.

For the sequence RRIRCRPPRLPRPRPRPVYDPRP, the “shrunken log2 fold change” value is -0.683.

Consider RRIRPRPPRLPRPRPRPMVLPRP, for which the “shrunken log2 fold change” value was found to be 0.0636.

RRIRFRPPRLPRPRPRPDYIPRP: the “shrunken log2 fold change” value worked out at 0.209.

On to RRIRRRPPRLPRPRPRPEQEPRP, for which the “shrunken log2 fold change” value amounted to 0.0308.

Take RRIRVRPPRLPRPRPRPNCQPRP: the “shrunken log2 fold change” value was -0.1.

Regarding RRIRCRPPRLPRPRPRPFRIPRP, the “shrunken log2 fold change” value is -0.128.

Regarding RRIRRRPPRLPRPRPRPPGEPRP, the “shrunken log2 fold change” value turned out to be 0.705.

RRIRERPPRLPRPRPRPFATPRP: the “shrunken log2 fold change” value worked out at 0.119.

On to RRIRHRPPRLPRPRPRPRGHPRP, for which the “shrunken log2 fold change” value was -0.103.

On to RRIRRRPPRLPRPRPRPQEGPRP, for which the “shrunken log2 fold change” value is -0.0768.

In the case of RRIRWRPPRLPRPRPRPIHVPRP, the “shrunken log2 fold change” value is -0.0677.

As for RRIRARPPRLPRPRPRPNGLPRP, the “shrunken log2 fold change” value was -0.0319.

For the sequence RRIRGRPPRLPRPRPRPACVPRP, the “shrunken log2 fold change” value worked out at 0.81.

On to RRIRARPPRLPRPRPRPNRLPRP, for which the “shrunken log2 fold change” value turned out to be 0.0862.

As for RRIRVRPPRLPRPRPRPSTRPRP, the “shrunken log2 fold change” value is 0.552.

In the case of RRIRGRPPRLPRPRPRPESGPRP, the “shrunken log2 fold change” value was determined as 1.12.

On to RRIRGRPPRLPRPRPRPICCPRP, for which the “shrunken log2 fold change” value turned out to be 0.8.

With RRIRQRPPRLPRPRPRPMCIPRP, the “shrunken log2 fold change” value amounted to 0.0119.

For RRIRNRPPRLPRPRPRPANRPRP, the “shrunken log2 fold change” value is -0.029.

Consider RRIRSRPPRLPRPRPRPVQYPRP, for which the “shrunken log2 fold change” value was -0.00908.

Turning to RRIRWRPPRLPRPRPRPGYEPRP, the “shrunken log2 fold change” value was 0.00228.

Take RRIRRRPPRLPRPRPRPWWSPRP: the “shrunken log2 fold change” value turned out to be 0.105.

As for RRIRIRPPRLPRPRPRPICMPRP, the “shrunken log2 fold change” value was -0.407.

Consider RRIRTRPPRLPRPRPRPYGQPRP, for which the “shrunken log2 fold change” value was -0.107.

For the sequence RRIRQRPPRLPRPRPRPTNEPRP, the “shrunken log2 fold change” value was -0.395.

For RRIRYRPPRLPRPRPRPKGQPRP, the “shrunken log2 fold change” value turned out to be 0.0405.

Regarding RRIRLRPPRLPRPRPRPCKHPRP, the “shrunken log2 fold change” value is -0.0106.

As to RRIRHRPPRLPRPRPRPEHRPRP, the “shrunken log2 fold change” value was -0.137.

RRIRARPPRLPRPRPRPWEIPRP: the “shrunken log2 fold change” value is -0.0378.

As to RRIRFRPPRLPRPRPRPSTNPRP, the “shrunken log2 fold change” value was -0.147.

As to RRIRIRPPRLPRPRPRPALKPRP, the “shrunken log2 fold change” value is -0.0298.

Turning to RRIRFRPPRLPRPRPRPCYYPRP, the “shrunken log2 fold change” value is -0.401.

Take RRIRSRPPRLPRPRPRPYASPRP: the “shrunken log2 fold change” value came to 0.0607.

For RRIRERPPRLPRPRPRPWARPRP, the “shrunken log2 fold change” value is -0.0915.

Turning to RRIRNRPPRLPRPRPRPPGCPRP, the “shrunken log2 fold change” value is 0.109.

As for RRIRNRPPRLPRPRPRPKMAPRP, the “shrunken log2 fold change” value is -0.00757.

As to RRIRIRPPRLPRPRPRPHLPPRP, the “shrunken log2 fold change” value is -0.0411.

Regarding RRIRVRPPRLPRPRPRPYMVPRP, the “shrunken log2 fold change” value was -0.292.

For RRIRLRPPRLPRPRPRPLRAPRP, the “shrunken log2 fold change” value turned out to be 0.709.

On to RRIRQRPPRLPRPRPRPWCVPRP, for which the “shrunken log2 fold change” value was -0.115.

Consider RRIRLRPPRLPRPRPRPFTFPRP, for which the “shrunken log2 fold change” value was 0.0545.

For the sequence RRIRMRPPRLPRPRPRPTAGPRP, the “shrunken log2 fold change” value came to 0.396.

RRIRSRPPRLPRPRPRPLIVPRP: the “shrunken log2 fold change” value was -0.206.

Regarding RRIRTRPPRLPRPRPRPGHDPRP, the “shrunken log2 fold change” value is -0.108.

Regarding RRIRERPPRLPRPRPRPLFYPRP, the “shrunken log2 fold change” value is -0.513.

Take RRIRARPPRLPRPRPRPEMQPRP: the “shrunken log2 fold change” value stood at 1.66.

As for RRIRARPPRLPRPRPRPDPSPRP, the “shrunken log2 fold change” value was found to be 0.508.

With RRIRDRPPRLPRPRPRPIYQPRP, the “shrunken log2 fold change” value is -0.431.

For the sequence RRIRWRPPRLPRPRPRPVDIPRP, the “shrunken log2 fold change” value worked out at 0.101.

On to RRIRGRPPRLPRPRPRPIKIPRP, for which the “shrunken log2 fold change” value is 0.302.

RRIRARPPRLPRPRPRPHSMPRP: the “shrunken log2 fold change” value came out at 0.104.

With RRIRQRPPRLPRPRPRPNHPPRP, the “shrunken log2 fold change” value was -0.249.

With RRIRPRPPRLPRPRPRPLWSPRP, the “shrunken log2 fold change” value was -0.0489.

RRIRFRPPRLPRPRPRPQQDPRP: the “shrunken log2 fold change” value was -0.24.

On to RRIRYRPPRLPRPRPRPTNTPRP, for which the “shrunken log2 fold change” value is -1.15.

On to RRIRVRPPRLPRPRPRPGTWPRP, for which the “shrunken log2 fold change” value is -0.0352.

Turning to RRIRVRPPRLPRPRPRPWRTPRP, the “shrunken log2 fold change” value turned out to be 0.0312.

As to RRIRQRPPRLPRPRPRPPSLPRP, the “shrunken log2 fold change” value came out at 0.149.

On to RRIRYRPPRLPRPRPRPPAGPRP, for which the “shrunken log2 fold change” value came out at 0.322.

For the sequence RRIRERPPRLPRPRPRPERCPRP, the “shrunken log2 fold change” value was 0.125.

For RRIRYRPPRLPRPRPRPFRMPRP, the “shrunken log2 fold change” value was -0.0929.

Consider RRIRGRPPRLPRPRPRPFSYPRP, for which the “shrunken log2 fold change” value came out at 0.0924.

For the sequence RRIRARPPRLPRPRPRPCQDPRP, the “shrunken log2 fold change” value is -0.163.

Turning to RRIRIRPPRLPRPRPRPTLYPRP, the “shrunken log2 fold change” value was -0.348.

Consider RRIRERPPRLPRPRPRPTVMPRP, for which the “shrunken log2 fold change” value was -0.193.

RRIRTRPPRLPRPRPRPNDWPRP: the “shrunken log2 fold change” value is -0.385.

Consider RRIRHRPPRLPRPRPRPLQMPRP, for which the “shrunken log2 fold change” value is -0.147.

As to RRIRARPPRLPRPRPRPEGPPRP, the “shrunken log2 fold change” value is 0.577.

As for RRIRQRPPRLPRPRPRPVGEPRP, the “shrunken log2 fold change” value is 0.443.

As for RRIRDRPPRLPRPRPRPQRMPRP, the “shrunken log2 fold change” value was -0.0312.

With RRIRYRPPRLPRPRPRPYMIPRP, the “shrunken log2 fold change” value was -0.0298.

Regarding RRIRNRPPRLPRPRPRPEKNPRP, the “shrunken log2 fold change” value was found to be 0.907.

RRIRLRPPRLPRPRPRPIVWPRP: the “shrunken log2 fold change” value was -0.027.

Take RRIRMRPPRLPRPRPRPVTRPRP: the “shrunken log2 fold change” value stood at 0.494.

Regarding RRIRNRPPRLPRPRPRPIFTPRP, the “shrunken log2 fold change” value is -0.424.

As for RRIRTRPPRLPRPRPRPPNDPRP, the “shrunken log2 fold change” value was -0.133.

Turning to RRIRPRPPRLPRPRPRPADRPRP, the “shrunken log2 fold change” value came out at 0.408.

Take RRIRYRPPRLPRPRPRPTFAPRP: the “shrunken log2 fold change” value is -0.321.

Take RRIRIRPPRLPRPRPRPTYPPRP: the “shrunken log2 fold change” value is -0.592.

Regarding RRIRYRPPRLPRPRPRPTGLPRP, the “shrunken log2 fold change” value was -0.101.

On to RRIRKRPPRLPRPRPRPFVPPRP, for which the “shrunken log2 fold change” value is -0.297.

With RRIRVRPPRLPRPRPRPLYGPRP, the “shrunken log2 fold change” value is -0.426.

For RRIRDRPPRLPRPRPRPRCAPRP, the “shrunken log2 fold change” value turned out to be 0.885.

For the sequence RRIRLRPPRLPRPRPRPKCRPRP, the “shrunken log2 fold change” value is 0.147.

In the case of RRIRERPPRLPRPRPRPKEGPRP, the “shrunken log2 fold change” value was -0.129.

Regarding RRIRTRPPRLPRPRPRPAKLPRP, the “shrunken log2 fold change” value worked out at 0.108.

(Values after the supplement of paper PMC9112550, “Optimization of the antimicrobial peptide Bac7 by deep mutational scanning” (BMC Biology, 2022).)
